Target: SARS-CoV-2 BA.1 RBD protein (SARS-CoV-2 Omicron BA.1, strain)
Test: SPR
Settings: both partners purified

B1: BA7208 (antibody, V domains shown)
VH: EVQLVQSGAEVKKPGESLKISCKGSGYSFTSYYWIGWVRQMPGKGLEWMGIVYPDDSDTRYSPSFQGQVTISADKSISTAYLQWSSLKASDTAMYYCVRHPGGGDWYFDLWGRGTLVTVSS
VL: DIQMTQSPSTLSASVGDRVTITCRASQSISSWLAWYQQKPGKAPKLLIYKASSLESGVPSRFSGSGSGTEFTLTITSLQPDDFATYYCQQYDSFSWTFGQGTKLEIK
  Kd: 1.81 nM

Source: publication PMC10825162 (Nature Communications, 2024)
